To fix the notation:
B1: RECQ1-WT (full-length His-tagged human RECQ1) (enzyme, UniProt P46063 1-649, looked up)
chain: MASVSALTEELDSITSELHAVEIQIQELTERQQELIQKKKVLTKKIKQCLEDSDAGASNEYDSSPAAWNKEDFPWSGKVKDILQNVFKLEKFRPLQLETINVTMAGKEVFLVMPTGGGKSLCYQLPALCSDGFTLVICPLISLMEDQLMVLKQLGISATMLNASSSKEHVKWVHAEMVNKNSELKLIYVTPEKIAKSKMFMSRLEKAYEARRFTRIAVDEVHCCSQWGHDFRPDYKALGILKRQFPNASLIGLTATATNHVLTDAQKILCIEKCFTFTASFNRPNLYYEVRQKPSNTEDFIEDIVKLINGRYKGQSGIIYCFSQKDSEQVTVSLQNLGIHAGAYHANLEPEDKTTVHRKWSANEIQVVVATVAFGMGIDKPDVRFVIHHSMSKSMENYYQESGRAGRDDMKADCILYYGFGDIFRISSMVVMENVGQQKLYEMVSYCQNISKCRRVLMAQHFDEVWNSEACNKMCDNCCKDSAFERKNITEYCRDLIKILKQAEELNEKLTPLKLIDSWMGKGAAKLRVAGVVAPTLPREDLEKIIAHFLIQQYLKEDYSFTAYATISYLKIGPKANLLNNEAHAITMQVTKSTQNSFRAESSQTCHSEQGDKKMEEKNSGNFQKKAANMLQQSGSKNTGAKKRKIDDA
B2: RECQ1-W227A (full-length His-tagged human RECQ1 aromatic loop mutant) (enzyme, UniProt P46063 1-649, looked up)
chain: MASVSALTEELDSITSELHAVEIQIQELTERQQELIQKKKVLTKKIKQCLEDSDAGASNEYDSSPAAWNKEDFPWSGKVKDILQNVFKLEKFRPLQLETINVTMAGKEVFLVMPTGGGKSLCYQLPALCSDGFTLVICPLISLMEDQLMVLKQLGISATMLNASSSKEHVKWVHAEMVNKNSELKLIYVTPEKIAKSKMFMSRLEKAYEARRFTRIAVDEVHCCSQAGHDFRPDYKALGILKRQFPNASLIGLTATATNHVLTDAQKILCIEKCFTFTASFNRPNLYYEVRQKPSNTEDFIEDIVKLINGRYKGQSGIIYCFSQKDSEQVTVSLQNLGIHAGAYHANLEPEDKTTVHRKWSANEIQVVVATVAFGMGIDKPDVRFVIHHSMSKSMENYYQESGRAGRDDMKADCILYYGFGDIFRISSMVVMENVGQQKLYEMVSYCQNISKCRRVLMAQHFDEVWNSEACNKMCDNCCKDSAFERKNITEYCRDLIKILKQAEELNEKLTPLKLIDSWMGKGAAKLRVAGVVAPTLPREDLEKIIAHFLIQQYLKEDYSFTAYATISYLKIGPKANLLNNEAHAITMQVTKSTQNSFRAESSQTCHSEQGDKKMEEKNSGNFQKKAANMLQQSGSKNTGAKKRKIDDA
B3: RECQ1-F231A (full-length His-tagged human RECQ1 aromatic loop mutant) (enzyme, UniProt P46063 1-649, looked up)
chain: MASVSALTEELDSITSELHAVEIQIQELTERQQELIQKKKVLTKKIKQCLEDSDAGASNEYDSSPAAWNKEDFPWSGKVKDILQNVFKLEKFRPLQLETINVTMAGKEVFLVMPTGGGKSLCYQLPALCSDGFTLVICPLISLMEDQLMVLKQLGISATMLNASSSKEHVKWVHAEMVNKNSELKLIYVTPEKIAKSKMFMSRLEKAYEARRFTRIAVDEVHCCSQWGHDARPDYKALGILKRQFPNASLIGLTATATNHVLTDAQKILCIEKCFTFTASFNRPNLYYEVRQKPSNTEDFIEDIVKLINGRYKGQSGIIYCFSQKDSEQVTVSLQNLGIHAGAYHANLEPEDKTTVHRKWSANEIQVVVATVAFGMGIDKPDVRFVIHHSMSKSMENYYQESGRAGRDDMKADCILYYGFGDIFRISSMVVMENVGQQKLYEMVSYCQNISKCRRVLMAQHFDEVWNSEACNKMCDNCCKDSAFERKNITEYCRDLIKILKQAEELNEKLTPLKLIDSWMGKGAAKLRVAGVVAPTLPREDLEKIIAHFLIQQYLKEDYSFTAYATISYLKIGPKANLLNNEAHAITMQVTKSTQNSFRAESSQTCHSEQGDKKMEEKNSGNFQKKAANMLQQSGSKNTGAKKRKIDDA

The data set deals with the molecule itself. The experiment in a line: SEC. On the technique in general: SEC sorts molecules by how far they enter the pores of the column.
Take B1: the binding result was “binds”. With B2 the entry was “binds”; with B3, “binds”.

(Values after publication PMC4631650 (Current biology : CB, 2015).)
